Source: paper PMC3020918

Biological target: YFP(N)-Sso1p (S. cerevisiae) (UniProt P32867)
Assay: split reporter

Sequence of UniProt P32867 (P32867 whole entry): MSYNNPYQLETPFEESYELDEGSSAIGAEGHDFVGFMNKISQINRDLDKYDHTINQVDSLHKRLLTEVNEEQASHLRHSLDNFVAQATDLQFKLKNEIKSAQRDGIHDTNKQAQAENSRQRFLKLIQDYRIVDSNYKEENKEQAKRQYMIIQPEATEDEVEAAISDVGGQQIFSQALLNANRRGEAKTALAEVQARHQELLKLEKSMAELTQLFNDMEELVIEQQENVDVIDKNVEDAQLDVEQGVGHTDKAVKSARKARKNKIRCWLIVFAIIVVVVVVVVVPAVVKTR

**Q.** For “Sec1p(658–724)-YFP(C) (from UniProt P30619 658-724) (domain or fragment)”, which percent stronger BiFC signal than Sec1p(658–724)-Sso2p is on record?
**A.** 22%
